# Measurements published in US20120282269A1 (Boehringer Ingelheim, published 2012).
# Positions count from the first letter of the chain named. Values joined by “and” are separate entries in the source; they are usually repeats but may differ in a detail not shown here. Equal values may be shown once.
# T1: recombinant human IL-23 (human, UniProt P29460 23-328)
# T1 sequence 1: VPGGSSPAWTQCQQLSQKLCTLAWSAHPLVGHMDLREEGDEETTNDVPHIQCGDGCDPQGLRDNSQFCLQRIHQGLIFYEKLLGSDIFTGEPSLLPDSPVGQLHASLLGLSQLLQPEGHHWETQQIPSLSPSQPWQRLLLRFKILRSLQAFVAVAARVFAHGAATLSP
# T1 sequence 2: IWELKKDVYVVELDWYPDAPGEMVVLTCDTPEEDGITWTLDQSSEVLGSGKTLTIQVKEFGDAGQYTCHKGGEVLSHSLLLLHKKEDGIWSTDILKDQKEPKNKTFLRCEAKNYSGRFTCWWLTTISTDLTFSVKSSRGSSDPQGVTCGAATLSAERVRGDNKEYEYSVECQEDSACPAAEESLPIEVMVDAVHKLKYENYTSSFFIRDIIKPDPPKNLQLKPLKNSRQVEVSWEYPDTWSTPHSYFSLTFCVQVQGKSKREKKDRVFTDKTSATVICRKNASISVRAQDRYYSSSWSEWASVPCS
# T2: natural human IL-23 from activated THP-1 cells (human, UniProt P29460 23-328)
# T2 sequence 1: T1 sequence 1
# T2 sequence 2: T1 sequence 2
# B1: 15C11 (antibody, V domains shown)
# VH: EVQLQQSGPVLVKPGASVKMSCKASGYTFTDYYMNWVKQSHGKSLEWIGVIIPYNGGTSYNQKFKGKATLTVDKSSSTAYMELNSLTSEDSAVYYCARDGHRWYFDVWGTGTTVTVSS
# VL: DVVMTQTPLSLPVSLGDQASISCRSSQSLVHSNGNTYLHWYLQKPGQSPKLLIYKVSNRFSGVPDRFSGSGSGTDFTLKINRVEAEDLGVYFCSQSTHVPYTFGGGTQLEIK
# B2: 34G3 (antibody, V domains shown)
# VH: EFQLQQSGPELVKPGASVKISCKASGYSFTDYNMNWVKQSKGKSLEWIGVIIPNYGFTSYNQNFKGKATLTVDQSSSTAHMQLNSVTSEDSAVYYCVRDGGILLWYLDVWGTGTTVTVSS
# VL: B1 VL with N81S, Q108K, K112N
# B3: 73H10 (antibody, V domains shown)
# VH: EVQLQQSGPELVKPGASVKMSCKASGYTFTRYVMHWVKQKPGQGLEWIGYINPYNDVTKYNEKFKGKATLTSDRSSSTAYMKLSSLTSEDSAVYYCARNWDVPYWGQGTLITVSA
# VL: DIQMTQSPVFLSASVGETVTITCRASENIDSYLAWYQQKQGKSPQLLVFAARNLADGVPSRFSGSGSGTQYSLKINRMQSEDVARYYCQHYYSTPFTFGSGTKLEIE
# B4: 74H3 (antibody, V domains shown)
# VH: B3 VH with V33L, V57G, K63R, R74K, K82E, I111V
# VL: DIQMTQSPASLSASVGETVIFTCRASENIDSYLAWYQQKQGKSPQLLVYAATNLADGVPSRFSGSGSGTQYSLKINSLQSEDVARYYCLHYYSTPFTFGSGTELEIK
# B5: 34D9 (antibody, V domains shown)
# VH: EVQLQQSGPELVKPGASVKIPCKASGYTFTDYNMDWVKKSHGKSLEWIGDINPHNGGTIYNQKFKGKATLTVDKSSSTAHMELRSLTSEDTAVYYCARNYYGSSYGWYFDVWGTGTTVTVSS
# VL: DIMMTQSHKFMSTSVGDRVSITCKASQDVGNAVVWYQQKPGQSPKLLIYWASTRHIGVPDRFTGSGSGTDFTLTITNVQSEDLADYFCQQYSSYLTFGAGTKLELK
# B6: 18C4 (antibody, V domains shown)
# VH: EVQLQQSGPEVVKPGASVKMSCKASGYTFTSSVIHWVKQKAGQGLEWIGYINPYNDGTKYNEKFKGKATLTSDRSSSTAYMELSSLTSEDSAVYYCTRRLDEAYWGQGTLVTVSA
# VL: DIVMTQSPATLSVTPGDRVSLSCRASQSISEYLHWYQQKSHESPRLLIKYASQSISGIPSRFSGSGSGSDFTLSINSVEPEDVGVYYCQNGHSFPFTFGSGTKLEIK
# B7: Chimeric 24A5 (antibody, V domains shown)
# VH: B6 VH with V11L, S31T, V33I, I34M, A41P, N55D, G57V, R74K, T97V, L100W
# VL: B6 VL with D17N, E31D, D70N
# B8: Chimeric 22E2 (antibody, V domains shown)
# VH: B6 VH with V11L, V33I, K40R, A41P, N55D, G57V, R74K, T97A, L100W, A103S
# VL: B6 VL with E31V, H41P
# B9: 31H9 (antibody, V domains shown)
# VH: B3 VH with V33L, V57G, K59N, R74K, K82E, A97S, R98L, V102Y, P103A, I111V
# VL: B6 VL with E31D, F96Y, S100G
# B10: 24A5 (antibody, V domains shown)
# VH: B6 VH with V11L, S31T, V33I, I34M, A41P, N55D, G57V, R74K, T97V, L100W
# VL: B6 VL with D17N, E31D, D70N
# B11: 22E2 (antibody, V domains shown)
# VH: B6 VH with V11L, V33I, K40R, A41P, N55D, G57V, R74K, T97A, L100W, A103S
# VL: B6 VL with E31V, H41P
# B12: 18D3 (antibody, V domains shown)
# VH: EVQLQQSGPELVKPGASVKMSCKASGYTFTRYLIHWVKQKPGQGLEWIGYINPYNDGTKYNEKFKGKATLTSDKSSSTAYMELSSLTSEDSAVYYCTSNWDLDYWGQGTTLTVSS
# VL: B6 VL with E31D, H34Y, Y50F, S63T, N76D, E81D, Y86F, Y87F, S100G
# B13: Mouse antibody 6B8 (antibody, V domains shown)
# VH: QVQLQQSDAELVKPGTSVKTSCKISGNTFTDQTIHWMKQRPEQGLEWIGYIYPRDDSPKYNENFKGKATLTADKSSSTAYMQLNSLTSEDSAVYFCAIPDRSGYAWFIYWGQGTLVTVSS
# VL: DIVMTQSHKFLSTSVGDRVTITCKASRDVAIAVAWYQQKPGQSPKLLLFWASTRHTGVPDRFTGSGSRTDFTLTISNVQSEDLADYFCHQYSSYPFTFGSGTKLEIK
# B14: 27G8 (antibody, V domains shown)
# VH: QVQLQQSDAELVKPGASVKISCKVSGYTFTDHTIHWMKQRPEQGLEWIGYIYPRDGYPKFNEKFKGKATLTADKSSSTAYMQLNSLTSEDSAVYFCARRPPYYAMDYWGQGTSVAVSS
# VL: DIVLTQSPASLAVSLGQRATISCRASKSVSTSGYSYIHWYQQKPGQPPKFLIYLASNLDSGVPARFSGSGSGTDFTLNIHPVEEEDAATYYCQHSRELPYTFGGGTKLEIK
# B15: 26F7 (antibody, V domains shown)
# VH: EVQLQQSGPELVKPGASVKISCKASGYTFTDYYMNWVRQSHGESLEWIGDFNHNNDVITYNPKFKGKVTLTVEKSSTTAYMELRSLSSEDSAVYYCARGLRGYYAMDYWGQGTSVTVSS
# VL: B14 VL with S30R, T31F, G33D, S35F, I37M, F50L, D59E, H94N
# B16: 9D12 (antibody, V domains shown)
# VH: QVQLKESGPVLVAPSQSLSITCTVSGFSLNNFAISWVRQPPGKGLEWLGAIWTGGGTNYNSALKSRLSISKDNSKSQVFLKMNSLQTDDTARYYCVRKDYSYGGAMDYWGQGTSVTVSS
# VL: DIALTQSPASLAVSLGQRATISCRASETINFYGTSFMHWYQQKPGQSPKLLIYRASNLESGIPARFSGSGSRTDFTLTINPVEADDVATYYCQQTNEDPYTFGGGTKLEIK
# B17: 43F5 (antibody, V domains shown)
# VH: EVQLQQSGPELVKPGASVKISCRASGYSFTGYYMNWVKQSPEKSLEWIGEIIPTTGGTSYNQKFKAKATLTVDKSSSTAYMQLKSLTSEDSAVYYCARESGGFYWYFDVWGTGTTVTVSS
# VL: B1 VL with T7S, Q43L, N81S, Q108K
# B18: 18E5 (antibody, V domains shown)
# VH: B12 VH with S17A
# VL: B6 VL with E31D, H34Y, Y50F, S63T, N76D, E81D, Y86F, Y87F, S100G
# B19: 20E8 (antibody, V domains shown)
# VH: B6 VH with V11L, I34M, K59Q, R74K, S75F
# VL: B6 VL
# B20: 2D1 (antibody, V domains shown)
# VH: B16 VH with V10G, N30T, N31T, F32Y, P40S, A50V, N58K, V96A, S101N
# VL: DIVLTQSPGSLAVSLGQRATISCRTSESVYSYGQNFIHWYQQKPGQPPKLLIYRASNLESGIPARFSGSGSRTDFTLTMNPVEADDVATYYCQQTNEDPYTFGGGTKLEIR
# Molecular target: T1, recombinant human IL-23
# Assay: cell-based or functional assay
row,"IC50, inhibition of IL-17 production from IL-23 stimulated mouse splenocytes",Binder
1,0.126 nM,B1
2,0.336 nM,B2
3,1.41 nM,B3
4,1.35 nM,B4
5,0.51 nM,B5
6,0.471 nM,B6
7,0.404 nM,B7
8,0.1 nM,B8
9,0.96 nM,B9
10,0.022 nM and 0.037 nM,B10
11,0.061 nM and 0.13 nM,B11
12,0.234 nM,B12
13,0.013 nM,B13
14,0.235 nM,B14
15,0.027 nM,B15
16,0.059 nM,B16

# Molecular target: T2, natural human IL-23 from activated …
# Assay: cell-based or functional assay
row,"IC50, inhibition of IL-17 production from IL-23 stimulated mouse splenocytes",Binder
1,0.232 nM,B1
2,8 nM,B17
3,0.027 nM and 0.025 nM,B2
4,0.456 nM,B5
5,0.095 nM and 0.102 nM,B7
6,0.009 nM and 0.013 nM,B18
7,2 nM,B9
8,0.085 nM and 0.031 nM,B10
9,0.438 nM and 0.561 nM,B19
10,5 nM,B14
11,2.34 nM and 1.91 nM and 1.6 nM,B20
12,0.281 nM and 0.138 nM,B16
